Measured values: patent publication US7125658B2, “Small protein that interacts with a ribonucleotide reductase subunit and uses thereof” (The Trustees of Columbia University in the City of New York, priority 1998, dated 2006)
Ends that are not written are not given here.

Experiments:
GAD = target: T1, GAD (Saccharomyces cerevisiae, UniProt P04386); assay: yeast two-hybrid assay against GAD alone; format: cell-based
T1 construct: expressed in transfected cells; host or cells: S. cerevisiae two-hybrid strain PJ69-4A
T1 sequence (P04386 768-881 limits assumed): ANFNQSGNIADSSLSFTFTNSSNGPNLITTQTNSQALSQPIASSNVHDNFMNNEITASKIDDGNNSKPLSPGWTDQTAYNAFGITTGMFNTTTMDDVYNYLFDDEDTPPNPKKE
Excerpt: (§1) The strains and plasmids for two-hybrid analysis were PJ69-4A, pGBD-C2, pGAD-C2 (James et al., 1996) and pACTII (CLONTECH® Inc.). The primer pair pB-SML1 5′ (SEQ ID NO: 11) and pGBD-SML1 3′ (SEQ ID NO: 13) (Table 4) was used to amplify the SML1 ORF. After digestion with BamHI and PstI, this PCR product was cloned into the BamHI-PstI sites of pGBD-C2 to construct plasmid pWJ728. Similarly, plasmid pWJ684 contains a BamHI fragment from the PCR product of the SML1 ORF generated using the primer pair pB-SML1 5′ and pB-SML1 3′ (SEQ ID NO: 12) (Table 4) and inserted at the BamHI site of pACTII. PCR fragments containing the RNR1 or the RNR2 ORF were generated by primer pairs RNR1-ORF 5′ (SEQ ID NO: 14) and RNR1 3′ (SEQ ID NO: 15) or RNR2-ORF 5′ (SEQ ID NO: 17) and RNR2 3′ (SEQ ID NO: 16) (Table 4). These fragments were cloned into the BamHI-PstI site of pGBD-C2 and pGAD-C2 to construct pWJ731 and pWJ745 or pWJ729 and pWJ746 respectively.
(§2) The GAL1-HIS3 reporter was assayed on SC-HIS-LEU-TRP medium plus 1-2 mM 3-aminotriazole. The GAL2-ADE2 reporter was assayed on SC-ADE-LEU-TRP medium.

GAD-SML1 = target: T2, GAD-SML1 (Saccharomyces cerevisiae, UniProt Q04964); assay: yeast two-hybrid assay against GAD-SML1; format: cell-based; set-up: key to HIS3 reporter / ADE2 reporter: + signifies growth on histidine-less and adenine-less media; +/− signifies constructs unable to grow on adenine-less medium but able to give rise to white colonies on YPD medium
T2 construct: expressed in transfected cells; host or cells: S. cerevisiae two-hybrid strain PJ69-4A
T2 sequence (Q04964 1-104): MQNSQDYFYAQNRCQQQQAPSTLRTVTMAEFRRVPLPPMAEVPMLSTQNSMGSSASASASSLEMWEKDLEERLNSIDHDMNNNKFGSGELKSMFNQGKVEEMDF
Excerpt: as §1, §2

GAD-RNR1 = target: T3, GAD-RNR1 (Saccharomyces cerevisiae, UniProt P21524); assay: yeast two-hybrid assay against GAD-RNR1; format: cell-based; set-up: key to HIS3 reporter / ADE2 reporter: + signifies growth on histidine-less and adenine-less media; +/− signifies constructs unable to grow on adenine-less medium but able to give rise to white colonies on YPD medium
T3 construct: expressed in transfected cells; host or cells: S. cerevisiae two-hybrid strain PJ69-4A
T3 sequence (P21524 1-888): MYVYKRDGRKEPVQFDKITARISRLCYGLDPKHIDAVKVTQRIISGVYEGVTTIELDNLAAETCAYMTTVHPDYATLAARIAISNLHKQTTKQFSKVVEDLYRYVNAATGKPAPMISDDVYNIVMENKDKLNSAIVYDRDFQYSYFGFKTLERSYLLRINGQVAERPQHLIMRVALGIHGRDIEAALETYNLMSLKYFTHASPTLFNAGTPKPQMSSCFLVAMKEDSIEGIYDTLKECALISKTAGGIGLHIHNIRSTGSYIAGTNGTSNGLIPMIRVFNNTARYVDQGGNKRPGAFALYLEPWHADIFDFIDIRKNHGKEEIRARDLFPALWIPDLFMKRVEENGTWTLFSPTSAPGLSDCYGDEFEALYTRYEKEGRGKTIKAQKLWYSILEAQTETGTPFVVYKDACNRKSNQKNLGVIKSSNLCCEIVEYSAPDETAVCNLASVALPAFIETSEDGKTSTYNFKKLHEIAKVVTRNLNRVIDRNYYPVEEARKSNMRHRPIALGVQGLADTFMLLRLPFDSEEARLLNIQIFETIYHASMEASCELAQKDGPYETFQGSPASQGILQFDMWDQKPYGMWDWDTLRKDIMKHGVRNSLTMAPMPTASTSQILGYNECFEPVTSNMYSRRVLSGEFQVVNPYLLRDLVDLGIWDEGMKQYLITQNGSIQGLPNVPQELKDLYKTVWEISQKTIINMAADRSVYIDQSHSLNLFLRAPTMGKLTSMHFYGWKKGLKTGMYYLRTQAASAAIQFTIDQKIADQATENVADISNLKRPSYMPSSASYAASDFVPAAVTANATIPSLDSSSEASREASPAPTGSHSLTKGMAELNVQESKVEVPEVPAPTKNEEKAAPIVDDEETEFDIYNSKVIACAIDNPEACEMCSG
Excerpt: as §1, §2

[1] = target: T4, Recombinant yeast Rnr1 protein (large subunit of ribonucleotide reductase) (yeast (Saccharomyces cerevisiae), UniProt P21524 1-888); assay: cell-based or functional assay
T4 sequence (looked up): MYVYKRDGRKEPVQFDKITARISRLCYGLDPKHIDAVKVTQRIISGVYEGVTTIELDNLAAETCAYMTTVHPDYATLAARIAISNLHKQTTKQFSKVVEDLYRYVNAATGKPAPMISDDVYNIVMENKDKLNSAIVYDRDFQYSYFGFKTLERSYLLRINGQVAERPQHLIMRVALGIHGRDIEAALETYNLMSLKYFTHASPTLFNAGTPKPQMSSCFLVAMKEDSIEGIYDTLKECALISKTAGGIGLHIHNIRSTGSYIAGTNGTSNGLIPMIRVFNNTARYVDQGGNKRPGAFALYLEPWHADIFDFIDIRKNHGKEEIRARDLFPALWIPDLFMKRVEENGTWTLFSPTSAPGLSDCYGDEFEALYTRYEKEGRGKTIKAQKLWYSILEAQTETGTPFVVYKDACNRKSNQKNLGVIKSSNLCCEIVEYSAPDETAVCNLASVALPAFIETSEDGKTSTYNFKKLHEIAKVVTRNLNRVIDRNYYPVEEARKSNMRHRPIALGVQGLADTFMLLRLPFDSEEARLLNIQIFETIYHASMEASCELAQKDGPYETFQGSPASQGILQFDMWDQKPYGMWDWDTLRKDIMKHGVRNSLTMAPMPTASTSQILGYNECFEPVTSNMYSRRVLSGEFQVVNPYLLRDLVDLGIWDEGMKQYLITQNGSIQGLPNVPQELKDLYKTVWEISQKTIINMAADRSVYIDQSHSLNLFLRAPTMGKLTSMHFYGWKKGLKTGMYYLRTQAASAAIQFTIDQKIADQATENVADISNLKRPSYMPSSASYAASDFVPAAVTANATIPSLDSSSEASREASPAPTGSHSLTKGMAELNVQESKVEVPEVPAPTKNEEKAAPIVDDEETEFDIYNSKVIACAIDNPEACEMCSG

[2] = SC-HIS-LEU-TRP plus 3-aminotriazole

B1: RNR1: GBD (Gal4 DNA binding domain) fusion of the RNR1 ORF in pGBD-C2, two-hybrid construct (protein)
chain: MYVYKRDGRKEPVQFDKITARISRLCYGLDPKHIDAVKVTQRIISGVYEGVTTIELDNLAAETCAYMTTVHPDYATLAARIAISNLHKQTTKQFSKVVEDLYRYVNAATGKPAPMISDDVYNIVMENKDKLNSAIVYDRDFQYSYFGFKTLERSYLLRINGQVAERPQHLIMRVALGIHGRDIEAALETYNLMSLKYFTHASPTLFNAGTPKPQMSSCFLVAMKEDSIEGIYDTLKECALISKTAGGIGLHIHNIRSTGSYIAGTNGTSNGLIPMIRVFNNTARYVDQGGNKRPGAFALYLEPWHADIFDFIDIRKNHGKEEIRARDLFPALWIPDLFMKRVEENGTWTLFSPTSAPGLSDCYGDEFEALYTRYEKEGRGKTIKAQKLWYSILEAQTETGTPFVVYKDACNRKSNQKNLGVIKSSNLCCEIVEYSAPDETAVCNLASVALPAFIETSEDGKTSTYNFKKLHEIAKVVTRNLNRVIDRNYYPVEEARKSNMRHRPIALGVQGLADTFMLLRLPFDSEEARLLNIQIFETIYHASMEASCELAQKDGPYETFQGSPASQGILQFDMWDQKPYGMWDWDTLRKDIMKHGVRNSLTMAPMPTASTSQILGYNECFEPVTSNMYSRRVLSGEFQVVNPYLLRDLVDLGIWDEGMKQYLITQNGSIQGLPNVPQELKDLYKTVWEISQKTIINMAADRSVYIDQSHSLNLFLRAPTMGKLTSMHFYGWKKGLKTGMYYLRTQAASAAIQFTIDQKIADQATENVADISNLKRPSYMPSSASYAASDFVPAAVTANATIPSLDSSSEASREASPAPTGSHSLTKGMAELNVQESKVEVPEVPAPTKNEEKAAPIVDDEETEFDIYNSKVIACAIDNPEACEMCSG
B1 was tested, and the LacZ activity (GAD) was 0.8 ± 0.2 Miller Units, the LacZ activity (GAD-SML1) was 85 ± 1 Miller Units and the ADE2 reporter (GAD-SML1; SC-ADE-LEU-TRP) was “+”. For the same molecule, the HIS3 reporter (GAD-SML1; [2]) was “+”, the LacZ activity (GAD-RNR1) was 2.9 ± 0.5 Miller Units and the ADE2 reporter (GAD-RNR1; SC-ADE-LEU-TRP) was “+/−”. The HIS3 reporter (GAD-RNR1; [2]) was “+”.

For Ac-KEINFDDDF [N-acetylated nonapeptide corresponding to the last 9 amino acids of Rnr4p], the “IC50, in vitro yeast RNR assay” value [1] was 30 µM.

For Ac-GAFTFNEDF [N-acetylated nonapeptide corresponding to the last 9 amino acids of Rnr2p], the “IC50, in vitro yeast RNR assay” value [1] was 44 µM.

Ac-QGKVEEMDF [N-acetylated nonapeptide corresponding to the last 9 amino acids of Sml1p] was tested, and the “IC50, in vitro yeast RNR assay” value [1] was roughly 300 µM.
